Source: patent US20230357367A1
Where two headings read alike, the source gives them in different places.

Columns and labels:
[1] = target: T1, SARS-CoV-2 spike S2 peptide 1149-1167 (C-terminal end of the stem helix), biotinylated (SARS-CoV-2); assay: SPR, Fab over captured biotin-peptide, 25 C
[2] = target: SARS-CoV-2 spike S2 peptide 1143-1162 (stem helix region), biotinylated (SARS-CoV-2); assay: SPR, Fab over captured biotin-peptide, 25 C
[3] = target: T2, SARS-CoV-2 spike S2 peptide 1149-1163, biotinylated (SARS-CoV-2); assay: SPR, Fab over captured biotin-peptide, 25 C
[4] = target: T3, SARS-CoV-2 spike S2 peptide 1153-1167, biotinylated (SARS-CoV-2); assay: SPR, Fab over captured biotin-peptide, 25 C
[5] = target: T1, SARS-CoV-2 spike S2 peptide 1149-1167 …; assay: SPR, Fab over captured biotin-peptide, 25 C; remark: listed apart in the source
[6] = target: HIV-1 Env peptide (negative control 15-mer), biotinylated (HIV-1); assay: DELFIA, IgG titrated on captured biotin-peptide; design: unit not given beside the values
[7] = target: T1, SARS-CoV-2 spike S2 peptide 1149-1167 …; assay: DELFIA, IgG titrated on captured biotin-peptide; design: unit not given beside the values
[8] = target: SARS-CoV-2 spike S2 peptide 1133-1147, biotinylated (SARS-CoV-2); assay: DELFIA, IgG titrated on captured biotin-peptide; design: unit not given beside the values
[9] = target: T2, SARS-CoV-2 spike S2 peptide 1149-1163, …; assay: DELFIA, IgG titrated on captured biotin-peptide; design: unit not given beside the values
[10] = target: SARS-CoV-2 spike S2 peptide 1157-1171, biotinylated (SARS-CoV-2); assay: DELFIA, IgG titrated on captured biotin-peptide; design: unit not given beside the values
[11] = target: SARS-CoV-2 spike S2 peptide 1137-1151, biotinylated (SARS-CoV-2); assay: DELFIA, IgG titrated on captured biotin-peptide; design: unit not given beside the values
[12] = target: T3, SARS-CoV-2 spike S2 peptide 1153-1167, …; assay: DELFIA, IgG titrated on captured biotin-peptide; design: unit not given beside the values

Binder | Kd [1] | koff [1] | kon [1] | Kd [2] | koff [2] | kon [2] | Kd [3] | koff [3] | kon [3] | Kd [4] | koff [4] | kon [4] | Kd [5] | AUC [6] | AUC [7] | AUC [8] | AUC [9] | AUC [10] | AUC [11] | AUC [12]
AB-1 Fab (Fab, V domains shown) VH: EVQLVESGAEVKKPGESLKISCKGSGYTFTRYWIGWVRQMPGKGLEWMGIIYPGDSDVRYSPSFQGHVTISADKSISTAYLQWNSLKASDTAMYYCARLPQYCSKGVCYRWFDPWGQGTLVTVSS VL: EIVLTQSPSSVSASVGDRVTITCRASQGISSWLAWYQQKPGKAPKLLIYAASSLQSGVPSRFSGSGSGTDFTLTISSLQPEDFATYYCQQGHSFPYTFGQGTNLEIK | 0.9 nM | 0.00241 s⁻¹ | 2.61e+06 M⁻¹ s⁻¹ | 12.3 nM | 0.037 s⁻¹ | 3e+06 M⁻¹ s⁻¹ | 83.1 nM | 0.146 s⁻¹ | 1.76e+06 M⁻¹ s⁻¹ | 111 nM | 0.0774 s⁻¹ | 697000 M⁻¹ s⁻¹ | 0.925 nM |  |  |  |  |  |  | 
Reference Antibody Fab (Fab, V domains shown) VH: EVQLVESGAEVKKPGESLKISCKGSGYTFTRYWIGWVRQMPGKGLEWMGIIYPGDSDTRYSPSFQGHVTISADKSISTAYLQWNSLKASDTAMYYCARLPQYCSNGVCQRWFDPWGQGTLVTVSS VL: EIVLTQSPSSVSASVGDRVTITCRASQGISSWLAWYQQKPGKAPKLLIYAASSLQSGVPSRFSGSGSGTDFTLTISSLQPEDFATYYCQQGNSFPYTFGQGTNLEIK | 5.4 nM | 0.00498 s⁻¹ | 929000 M⁻¹ s⁻¹ |  |  |  | 244 nM | 0.0663 s⁻¹ | 272000 M⁻¹ s⁻¹ | 311 nM | 0.0535 s⁻¹ | 172000 M⁻¹ s⁻¹ | 5.36 nM |  |  |  |  |  |  | 
AB-1 (antibody, V domains shown) VH: EVQLVESGAEVKKPGESLKISCKGSGYTFTRYWIGWVRQMPGKGLEWMGIIYPGDSDVRYSPSFQGHVTISADKSISTAYLQWNSLKASDTAMYYCARLPQYCSKGVCYRWFDPWGQGTLVTVSS VL: EIVLTQSPSSVSASVGDRVTITCRASQGISSWLAWYQQKPGKAPKLLIYAASSLQSGVPSRFSGSGSGTDFTLTISSLQPEDFATYYCQQGHSFPYTFGQGTNLEIK |  |  |  |  |  |  |  |  |  |  |  |  |  | 9860 |  |  |  |  |  | 
Reference Antibody (antibody, V domains shown) VH: EVQLVESGAEVKKPGESLKISCKGSGYTFTRYWIGWVRQMPGKGLEWMGIIYPGDSDTRYSPSFQGHVTISADKSISTAYLQWNSLKASDTAMYYCARLPQYCSNGVCQRWFDPWGQGTLVTVSS VL: EIVLTQSPSSVSASVGDRVTITCRASQGISSWLAWYQQKPGKAPKLLIYAASSLQSGVPSRFSGSGSGTDFTLTISSLQPEDFATYYCQQGNSFPYTFGQGTNLEIK |  |  |  |  |  |  |  |  |  |  |  |  |  | 16100 | 3.05e+06 | 3260 | 3.26e+06 | 6010 | 5050 | 3.12e+06
